Assay results reported in patent US20220204583A1 (published 2022).
Positions count from the first letter of the chain named.

B1: VLR-Fc-46 (Fc fusion)
chain: ACPSQCSCSGTTVDCSGKSLASVPTGIPTTTRWLHLHRNQLTKLEPGVFDSLTQLTYLNLGGNQLTALPVGVFDKLTNLKELKLYSNQLQALSEGLFDRLGKLQHLDLSKNQLKSIPHGAFDRLSSLTHAYLFGNPWDCECRDIMYLRNWVADHTSIVMRWDGKAVNDPDSAKCAGTNTPVRAVTEASTSPSKCPGYVAT
B2: VLR-Fc-11 (Fc fusion)
chain: B1 chain with T12E, D14R, S16E, G17S, K18R, T25A, W33R
B3: VLR-Fc-30 (Fc fusion)
chain: B1 chain with R32Q, W33I, H35R, H37Y, L41I

molecular target: MBECs (cultured cells); assay: equilibrium titration on cultured MBECs; apparent affinity

Row | Kd [nM] | Binder
1 | 68.2 | B1
2 | 10.4 | B2
3 | 5.4 | B3
